Test results from US5945329A, “Customized proteases” (Carlsberg A/S, priority 1997, dated 1999).
Peptide text beside a SMILES is read from it. * marks the point of attachment. Bz = O=C(c1ccccc1)*

T1: yeast carboxypeptidase Y (CPD-Y), wild type (SEQ ID NO:32) (Saccharomyces cerevisiae, UniProt P00729)
T1 construct: purchased Carlbiotech, Copenhagen, Denmark
T1 sequence (P00729 112-532): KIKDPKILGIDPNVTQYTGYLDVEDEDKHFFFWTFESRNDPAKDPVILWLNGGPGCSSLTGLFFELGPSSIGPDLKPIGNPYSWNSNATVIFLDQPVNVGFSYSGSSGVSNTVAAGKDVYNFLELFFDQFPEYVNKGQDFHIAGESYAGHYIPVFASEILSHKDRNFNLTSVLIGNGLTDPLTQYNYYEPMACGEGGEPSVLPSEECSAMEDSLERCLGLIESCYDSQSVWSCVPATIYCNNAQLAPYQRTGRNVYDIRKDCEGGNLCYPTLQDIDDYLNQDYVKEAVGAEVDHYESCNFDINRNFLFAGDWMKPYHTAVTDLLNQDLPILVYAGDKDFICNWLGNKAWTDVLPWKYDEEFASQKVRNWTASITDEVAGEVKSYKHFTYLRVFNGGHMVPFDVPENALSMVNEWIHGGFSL

T2: carboxypeptidase Y (CPD-Y) variant N51Q (Asn51 replaced with glutamine) (Saccharomyces cerevisiae, UniProt P00729, N162Q)
T2 construct: made in house; host or cells: S. cerevisiae W2579 (secreted)
T2 sequence (P00729 112-532 N162Q): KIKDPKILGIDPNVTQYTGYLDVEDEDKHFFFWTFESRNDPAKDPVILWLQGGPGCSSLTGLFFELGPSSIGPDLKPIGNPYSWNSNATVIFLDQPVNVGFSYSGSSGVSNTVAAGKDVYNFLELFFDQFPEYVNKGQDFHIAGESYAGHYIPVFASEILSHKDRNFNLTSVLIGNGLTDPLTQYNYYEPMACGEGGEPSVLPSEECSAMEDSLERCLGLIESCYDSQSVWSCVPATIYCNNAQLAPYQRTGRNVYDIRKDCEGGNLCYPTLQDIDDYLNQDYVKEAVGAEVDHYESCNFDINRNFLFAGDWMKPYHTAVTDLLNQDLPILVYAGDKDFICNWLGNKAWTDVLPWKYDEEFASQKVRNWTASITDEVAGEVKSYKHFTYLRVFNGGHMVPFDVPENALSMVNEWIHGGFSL


Tests used:
[1] = target: T1, yeast carboxypeptidase Y (CPD-Y), wild type (SEQ ID NO:32); assay: Aminolysis of ester/peptide substrates; KN(app) of nucleophile; assay type: biochemical; conditions: for KN,app (H-Gly-NH2 as nucleophile): substance of the line is the substrate (leaving group phenylalanine or L-β-phenyllactic acid), enzyme not named, taken as CPD-Y; for KN(app): Table III (unit as in Tables I, II), ester substrate
Description: (§1) Aminolysis reactions were carried out in the following way. The nucleophile was dissolved in 50 mM Hepes, 5 mM EDTA and pH was adjusted to 7.5. Five (5) μl of substrate (8 mM FA-Ala-OBzl in methanol) was added to 190 μl nucleophile solution followed by 5 μl enzyme, resulting in a substrate concentration of 0.2 mM. For reactions carried out at pH 9.5, Hepes was replaced with Ches. During the reaction, 20 μl aliquots were removed from the reaction mixture and added to 50 μl 1% trifluoroacetic acid to quench the reaction. The reactant composition was determined by HPLC using a Waters HPLC equipped with a C-18 Waters Novapac 4μ reverse phase column and various gradients of acetonitrile in 0.1% trifluoroacetic acid. The separation was monitored at 302 nm allowing the direct quantification of the products from the integrated peak areas. The composition of the reaction mixture was determined at least twice during the reaction, the first time when 20-50% (preferably 35%) of the ester substrate had been consumed in the reaction and the second time when 50-90% (preferably 80%) of the substrate had been consumed. The products were collected and identified by amino acid analysis after acid hydrolysis using a Pharmacia Alpha Plus analyzer.
(§2) Further identification was obtained by co-chromatography of authentic standard compounds. The fraction of aminolysis (fa) was expressed as the ratio between the formed aminolysis product and the sum of all products being formed, i.e., unconsumed substrate was disregarded in the calculations. The KN(app), representing the nucleophile concentration at which fa is half the maximum value (a measure for the dissociation constant of the nucleophile), and famax (the highest possible fa obtained at saturation of the enzyme with nucleophile) were determined by fitting the values of fa obtained at a minimum of seven concentrations of nucleophile to a saturation. The value of fa obtained at the highest possible nucleophile concentration is designated fasat.
(§3) Aminolysis reactions were carried out in the following way. The nucleophile was dissolved in 50 mM HEPES, 5 mM EDTA and pH was adjusted to 7.5, 5 μl substrate (8 mM FA-Ala-OBzl or FA-Ala-Xaa-OH in methanol) was added to 190 μl nucleophile solution followed by 5 μl enzyme diluted in buffer to the appropriate concentration, resulting in a substrate concentration of 0.2 mM. During the reaction, 20 μl aliquots were removed from the reaction mixture and added to 50 μl 1% trifluoroacetic acid to quench the reaction. The reactant composition was determined by HPLC using a Waters HPLC equipped with a C-18 Waters Novapac 4μ reverse phase column and various gradients of acetonitrile in 0.1% trifluoroacetic acid. The separation was monitored at 302 nm allowing the direct quantification of the products from the integrated peak areas. The products were collected and identified by amino acid analysis after acid hydrolysis (Pharmacia Alpha Plus analyzer) and by co-chromatography of authentic standards. The fraction of aminolysis (fa) was expressed as the ratio between the formed aminolysis product and the sum of all products being formed, i.e. unconsumed substrate was disregarded in the calculations. The KN,app (a measure for the dissociation constant of the nucleophile) and famax (the highest possible fa obtained at saturation with nucleophile were determined by fitting the obtained fa values to the equation fa=famax /(1+KN,app /N).

[2] = target: CBZ-Phe-Leu-OH
[3] = target: CBZ-Gly-Leu-OH
[4] = target: CBZ-Trp-Leu-OH
[5] = target: CBZ-Ser-Leu-OH
[6] = target: CBZ-His-Leu-OH
[7] = target: CBZ-Lys-Leu-OH
[8] = target: CBZ-Glu-Leu-OH
[9] = target: CBZ-Pro-Leu-OH
[10] = target: T2, carboxypeptidase Y (CPD-Y) variant N51Q (Asn51 replaced with glutamine); assay: Aminolysis; KN(app) of nucleophile; assay type: biochemical, yeast; conditions: Table V; amino acid nucleophile, FA-Ala-OBzl as substrate, pH 7.5
Description: as §1, §2, §3

[11] = substrate: CC(C)[C@H](NC(=O)[C@H](Cc1ccccc1)NC(=O)C=Cc1ccco1)C(=O)O; assay: Hydrolysis of FA-Phe-Val-OH; assay type: biochemical, yeast; conditions: other: hydrolysis of FA-Phe-Val-OH

Molecule	estimated CPD-Y activity relative to wild type transformants (fold of wild type) [2]	estimated CPD-Y activity relative to wild type transformants (fold of wild type) [3]	estimated CPD-Y activity relative to wild type transformants (fold of wild type) [4]	estimated CPD-Y activity relative to wild type transformants (fold of wild type) [5]	estimated CPD-Y activity relative to wild type transformants (fold of wild type) [6]	estimated CPD-Y activity relative to wild type transformants (fold of wild type) [7]	estimated CPD-Y activity relative to wild type transformants (fold of wild type) [8]	estimated CPD-Y activity relative to wild type transformants (fold of wild type) [9]	KN(app) ([1]; amino acid nucleophile)	further results
O=C(CNC(=O)c1ccccc1)O[C@@H](Cc1ccccc1)C(=O)O [Hippuryl-L-β-Phenyllactic acid]	–	–	–	–	–	–	–	–	–	KN,app (H-Gly-NH2 as nucleophile) [1]: 0.47±0.05
carboxypeptidase Y mutant 178His/215Thr/216Phe (enzyme)	0.9	0.8	1.7	1	1.1	3.1	1.2	1.2	–	–
carboxypeptidase Y mutant 178His/215Pro/216Thr (enzyme)	0.9	0.8	1.5	1.1	1.1	3.6	1	1.2	–	–
N[C@@H](Cc1ccccc1)C(=O)O [H--Phe--OH, H-Phe-OH]	–	–	–	–	–	–	–	–	9.5 ± 1 mM	Kn,app [10]: 29 ± 1 mM
N[C@@H](Cc1c[nH]cn1)C(=O)O [H--His--OH, H-His-OH]	–	–	–	–	–	–	–	–	87 ± 9 mM	–
carboxypeptidase Y mutant 178Gly/340Ile/341Cys (enzyme)	0.8	0.3	0.5	0.3	0.8	4.6	0.8	0.5	–	–
NC(=O)CC[C@H](N)C(=O)O [H--Gln--OH, H-Gln-OH]	–	–	–	–	–	–	–	–	150 ± 8 mM	–
carboxypeptidase Y mutant 178Ala/215Ser/216Arg (enzyme)	1.2	1.1	1.1	1.3	1	4	1.4	0.6	–	–
carboxypeptidase Y mutant 178Cys (enzyme)	–	0.9	1	0.5	1.7	6.9	1.1	0.3	–	–
carboxypeptidase Y mutant 178Cys/215Thr/216Trp (enzyme)	1	0.8	0.9	0.4	1.1	5.3	1.1	1.6	–	–
carboxypeptidase Y mutant 178Asn/215Ala/216Gly (enzyme)	2.8	0.7	2	0.7	1.3	4.4	2	0.9	–	–
NCC(=O)O [H--Gly--OH, H-Gly-OH]	–	–	–	–	–	–	–	–	1500 ± 50 mM	–
NCCCC[C@H](N)C(=O)O [H--Lys--OH, H-Lys-OH]	–	–	–	–	–	–	–	–	190 ± 30 mM	–
N[C@@H](CO)C(=O)O [H--Ser--OH, H-Ser-OH]	–	–	–	–	–	–	–	–	310 ± 20 mM	–
O=C(CNC(=O)c1ccccc1)N[C@@H](Cc1ccccc1)C(=O)O [Hippuryl-L-Phe-OH] (Bz-Gly-Phe-OH)	–	–	–	–	–	–	–	–	–	KN,app (H-Gly-NH2 as nucleophile) [1]: 0.63±0.06
C[C@H](N)C(=O)O [H--Ala--OH, H-Ala-OH]	–	–	–	–	–	–	–	–	83 ± 7 mM	Kn,app ([1]; Table V, amino acid nucleophile, FA-Ala-OBzl as substrate, pH 7.5): 83 ± 7 mM; Kn,app [10]: 250 ± 15 mM
carboxypeptidase Y (CPD-Y) variant N51Q (Asn51 replaced with glutamine) (Saccharomyces cerevisiae S288C; N162Q) (protein, made in house; host or cells: S. cerevisiae W2579 (secreted)) KIKDPKILGIDPNVTQYTGYLDVEDEDKHFFFWTFESRNDPAKDPVILWLQGGPGCSSLTGLFFELGPSSIGPDLKPIGNPYSWNSNATVIFLDQPVNVGFSYSGSSGVSNTVAAGKDVYNFLELFFDQFPEYVNKGQDFHIAGESYAGHYIPVFASEILSHKDRNFNLTSVLIGNGLTDPLTQYNYYEPMACGEGGEPSVLPSEECSAMEDSLERCLGLIESCYDSQSVWSCVPATIYCNNAQLAPYQRTGRNVYDIRKDCEGGNLCYPTLQDIDDYLNQDYVKEAVGAEVDHYESCNFDINRNFLFAGDWMKPYHTAVTDLLNQDLPILVYAGDKDFICNWLGNKAWTDVLPWKYDEEFASQKVRNWTASITDEVAGEVKSYKHFTYLRVFNGGHMVPFDVPENALSMVNEWIHGGFSL	–	–	–	–	–	–	–	–	–	Km [11]: 85 µM; kcat [11]: 25 s⁻¹; kcat/Km [11]: 300000 M⁻¹ s⁻¹
